Experiments:
AncSZ = test: phosphorylation enrichment, bacterial display (enrichment ratio); higher = better substrate or ligand; peptides without Tyr show the background
EPHB1 = EPHB1 (UniProt P54762); test: as above
EPHB2 = EPHB2 (UniProt P29323); test: as above
FGFR1 = FGFR1 (UniProt P11362); test: as above
FGFR3 = FGFR3 (UniProt P22607); test: as above
Fer (mouse) = test: as above
Fes = Fes (UniProt P07332); test: as above
Fyn = Fyn (UniProt P06241); test: as above
Hck = Hck (UniProt P08631); test: as above
Hck, sequence (P08631 whole entry, looked up): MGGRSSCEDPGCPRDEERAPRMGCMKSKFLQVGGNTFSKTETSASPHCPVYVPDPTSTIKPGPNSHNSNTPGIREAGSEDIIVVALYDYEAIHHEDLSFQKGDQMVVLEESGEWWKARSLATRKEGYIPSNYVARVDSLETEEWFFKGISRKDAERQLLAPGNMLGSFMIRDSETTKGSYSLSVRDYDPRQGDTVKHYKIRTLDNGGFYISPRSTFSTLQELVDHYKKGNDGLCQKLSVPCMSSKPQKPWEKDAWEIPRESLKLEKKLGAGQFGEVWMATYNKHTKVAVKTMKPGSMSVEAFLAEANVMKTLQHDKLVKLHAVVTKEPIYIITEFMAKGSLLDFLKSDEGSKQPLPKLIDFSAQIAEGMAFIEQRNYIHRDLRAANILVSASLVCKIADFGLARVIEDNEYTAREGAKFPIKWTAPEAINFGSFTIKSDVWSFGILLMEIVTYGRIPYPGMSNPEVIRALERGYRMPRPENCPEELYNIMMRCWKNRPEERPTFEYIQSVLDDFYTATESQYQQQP

Jak2 = Jak2 (UniProt O60674); test: as above
MERTK = MERTK (UniProt Q12866); test: as above
MERTK, sequence (Q12866 whole entry, looked up): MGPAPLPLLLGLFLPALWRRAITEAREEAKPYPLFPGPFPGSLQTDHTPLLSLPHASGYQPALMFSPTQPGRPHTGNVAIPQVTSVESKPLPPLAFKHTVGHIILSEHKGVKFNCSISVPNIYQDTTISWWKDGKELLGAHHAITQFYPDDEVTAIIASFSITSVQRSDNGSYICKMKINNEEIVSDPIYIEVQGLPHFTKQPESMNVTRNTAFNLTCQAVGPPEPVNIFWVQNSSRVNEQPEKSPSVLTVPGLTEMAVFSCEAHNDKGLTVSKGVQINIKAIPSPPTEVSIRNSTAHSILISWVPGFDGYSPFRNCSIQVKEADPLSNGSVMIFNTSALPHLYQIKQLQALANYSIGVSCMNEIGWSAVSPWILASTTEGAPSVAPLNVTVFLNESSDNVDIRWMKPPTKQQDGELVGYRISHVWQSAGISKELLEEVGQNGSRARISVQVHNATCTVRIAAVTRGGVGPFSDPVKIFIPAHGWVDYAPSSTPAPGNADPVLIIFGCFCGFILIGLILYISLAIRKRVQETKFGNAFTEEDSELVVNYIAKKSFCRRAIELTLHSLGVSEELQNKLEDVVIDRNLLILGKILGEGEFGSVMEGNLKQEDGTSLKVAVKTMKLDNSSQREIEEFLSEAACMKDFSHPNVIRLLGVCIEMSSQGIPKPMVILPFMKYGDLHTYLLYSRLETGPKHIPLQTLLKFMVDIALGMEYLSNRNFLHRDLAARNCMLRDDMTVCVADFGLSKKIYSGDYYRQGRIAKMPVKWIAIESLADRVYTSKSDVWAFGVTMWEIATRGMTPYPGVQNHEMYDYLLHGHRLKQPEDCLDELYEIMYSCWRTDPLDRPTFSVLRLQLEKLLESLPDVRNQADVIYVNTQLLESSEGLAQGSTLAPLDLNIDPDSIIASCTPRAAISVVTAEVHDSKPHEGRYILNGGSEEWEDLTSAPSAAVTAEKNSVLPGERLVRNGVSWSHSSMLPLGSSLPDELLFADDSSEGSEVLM

c-Abl (mouse) = test: as above
c-Src = test: as above
Grb2 SH2 = Grb2 SH2 (UniProt P62993); test: SH2 binding enrichment of the phosphorylated peptide, bacterial display (enrichment ratio); higher = better substrate or ligand; peptides without Tyr show the background
SHP2-C SH2 = test: as above
c-Src SH2 = test: as above
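Wherever SH2 binding enrichment of the phosphorylated peptide, bacterial display is given: peptide library displayed on the E. coli surface as eCPX fusions, selected cells deep-sequenced, score is each peptide's frequency after selection divided by its frequency in the input.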
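Wherever phosphorylation enrichment, bacterial display is given: 11-residue human phosphosite peptides and single-mutation variants displayed on the E. coli surface, counted by deep sequencing, each peptide's frequency after selection divided by its frequency in the unselected input library; frequency after pTyr selection over input frequency; kinase dosed for 20-30% of maximal phosphorylation in three min.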

EPHB2, sequence (P29323 whole entry, looked up): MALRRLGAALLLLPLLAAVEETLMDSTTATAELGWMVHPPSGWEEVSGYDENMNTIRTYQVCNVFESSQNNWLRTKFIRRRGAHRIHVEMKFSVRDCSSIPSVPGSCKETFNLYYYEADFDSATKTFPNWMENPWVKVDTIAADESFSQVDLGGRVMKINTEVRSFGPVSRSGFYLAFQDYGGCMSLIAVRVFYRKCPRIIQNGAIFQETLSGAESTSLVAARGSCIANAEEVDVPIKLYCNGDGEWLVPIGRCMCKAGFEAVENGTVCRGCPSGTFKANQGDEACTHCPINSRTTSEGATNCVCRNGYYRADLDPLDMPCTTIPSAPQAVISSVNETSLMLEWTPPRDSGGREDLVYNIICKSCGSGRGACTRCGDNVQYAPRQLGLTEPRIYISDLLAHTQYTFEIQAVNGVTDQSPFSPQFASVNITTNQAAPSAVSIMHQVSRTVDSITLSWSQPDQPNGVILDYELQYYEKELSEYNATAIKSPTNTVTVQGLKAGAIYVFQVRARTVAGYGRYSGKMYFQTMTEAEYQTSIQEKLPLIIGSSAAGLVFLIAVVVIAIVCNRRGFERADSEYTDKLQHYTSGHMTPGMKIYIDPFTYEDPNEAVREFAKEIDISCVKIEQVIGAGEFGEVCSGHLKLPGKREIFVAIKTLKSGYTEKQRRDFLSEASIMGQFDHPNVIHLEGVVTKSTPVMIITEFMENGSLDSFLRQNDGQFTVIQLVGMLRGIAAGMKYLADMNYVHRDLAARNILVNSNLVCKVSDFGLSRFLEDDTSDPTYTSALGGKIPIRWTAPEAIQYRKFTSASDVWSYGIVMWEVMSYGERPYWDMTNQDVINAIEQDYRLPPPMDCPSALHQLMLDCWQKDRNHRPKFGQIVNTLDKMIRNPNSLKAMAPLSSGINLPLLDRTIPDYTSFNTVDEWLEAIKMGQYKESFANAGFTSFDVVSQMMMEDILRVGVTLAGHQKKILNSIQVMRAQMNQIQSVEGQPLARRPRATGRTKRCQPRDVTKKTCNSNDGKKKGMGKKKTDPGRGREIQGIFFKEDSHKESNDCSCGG
Fyn, sequence (P06241 whole entry, looked up): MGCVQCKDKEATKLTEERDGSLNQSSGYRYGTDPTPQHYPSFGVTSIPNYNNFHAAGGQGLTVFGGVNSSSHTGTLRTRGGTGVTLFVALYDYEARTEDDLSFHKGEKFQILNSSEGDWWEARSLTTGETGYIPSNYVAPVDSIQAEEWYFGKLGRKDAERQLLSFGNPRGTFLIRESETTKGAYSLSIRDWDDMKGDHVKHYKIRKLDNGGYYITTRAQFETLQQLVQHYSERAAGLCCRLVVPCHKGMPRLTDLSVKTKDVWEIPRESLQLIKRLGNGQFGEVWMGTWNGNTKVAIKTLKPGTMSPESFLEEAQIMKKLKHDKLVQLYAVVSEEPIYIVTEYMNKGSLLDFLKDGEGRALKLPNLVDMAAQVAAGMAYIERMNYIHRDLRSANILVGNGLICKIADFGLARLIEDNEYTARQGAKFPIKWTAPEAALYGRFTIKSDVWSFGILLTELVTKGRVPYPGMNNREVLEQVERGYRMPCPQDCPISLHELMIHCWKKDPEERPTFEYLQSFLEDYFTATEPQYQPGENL
EPHB1, sequence (P54762 whole entry, looked up): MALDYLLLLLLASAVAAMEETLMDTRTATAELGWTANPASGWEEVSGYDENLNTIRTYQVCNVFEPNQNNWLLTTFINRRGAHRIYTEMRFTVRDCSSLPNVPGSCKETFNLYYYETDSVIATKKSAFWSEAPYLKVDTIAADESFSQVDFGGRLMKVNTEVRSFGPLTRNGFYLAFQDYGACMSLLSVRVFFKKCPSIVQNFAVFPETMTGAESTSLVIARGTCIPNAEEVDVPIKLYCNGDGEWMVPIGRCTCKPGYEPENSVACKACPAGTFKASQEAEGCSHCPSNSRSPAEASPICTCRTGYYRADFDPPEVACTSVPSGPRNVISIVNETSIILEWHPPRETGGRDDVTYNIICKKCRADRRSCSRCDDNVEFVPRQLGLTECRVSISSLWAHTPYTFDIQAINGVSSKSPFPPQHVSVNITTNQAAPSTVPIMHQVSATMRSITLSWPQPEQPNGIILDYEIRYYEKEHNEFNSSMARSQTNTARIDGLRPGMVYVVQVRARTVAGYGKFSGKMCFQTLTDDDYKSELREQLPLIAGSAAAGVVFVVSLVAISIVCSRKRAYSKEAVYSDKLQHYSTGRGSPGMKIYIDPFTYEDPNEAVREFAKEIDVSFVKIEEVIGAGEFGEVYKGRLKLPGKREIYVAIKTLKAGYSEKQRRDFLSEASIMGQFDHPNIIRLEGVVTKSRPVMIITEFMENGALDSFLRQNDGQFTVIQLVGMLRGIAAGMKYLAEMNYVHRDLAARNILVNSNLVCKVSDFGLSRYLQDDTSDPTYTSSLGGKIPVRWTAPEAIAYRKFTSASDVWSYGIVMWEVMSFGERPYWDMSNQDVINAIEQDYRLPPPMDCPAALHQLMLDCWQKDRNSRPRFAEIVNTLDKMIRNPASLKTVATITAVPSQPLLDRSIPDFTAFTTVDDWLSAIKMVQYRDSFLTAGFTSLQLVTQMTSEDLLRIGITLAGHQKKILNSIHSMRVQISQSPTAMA
FGFR3, sequence (P22607 whole entry, looked up): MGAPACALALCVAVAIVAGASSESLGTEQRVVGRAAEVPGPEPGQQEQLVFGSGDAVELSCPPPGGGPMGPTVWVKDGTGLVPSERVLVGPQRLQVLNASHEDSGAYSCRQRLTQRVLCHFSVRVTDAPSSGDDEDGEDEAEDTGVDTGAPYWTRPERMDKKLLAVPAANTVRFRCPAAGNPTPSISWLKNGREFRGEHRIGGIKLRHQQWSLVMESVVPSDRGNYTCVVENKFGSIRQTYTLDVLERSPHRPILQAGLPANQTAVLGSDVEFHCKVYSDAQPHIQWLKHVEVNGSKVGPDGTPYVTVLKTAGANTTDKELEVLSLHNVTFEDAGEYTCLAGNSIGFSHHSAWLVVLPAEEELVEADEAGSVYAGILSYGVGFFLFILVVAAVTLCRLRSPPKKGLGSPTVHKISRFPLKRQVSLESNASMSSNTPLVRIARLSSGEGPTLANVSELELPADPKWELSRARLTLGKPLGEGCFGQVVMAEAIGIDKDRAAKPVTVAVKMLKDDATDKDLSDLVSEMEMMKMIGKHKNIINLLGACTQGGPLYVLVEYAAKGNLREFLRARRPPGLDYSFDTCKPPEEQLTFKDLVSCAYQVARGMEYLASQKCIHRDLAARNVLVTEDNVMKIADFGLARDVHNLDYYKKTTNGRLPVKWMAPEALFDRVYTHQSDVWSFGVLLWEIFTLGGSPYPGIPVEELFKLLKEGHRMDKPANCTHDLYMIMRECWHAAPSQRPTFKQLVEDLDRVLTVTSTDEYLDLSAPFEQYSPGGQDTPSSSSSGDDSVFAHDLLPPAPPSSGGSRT

Row | Sequence | SH2 binding enrichment (Grb2 SH2) | SH2 binding enrichment (SHP2-C SH2) | SH2 binding enrichment (c-Src SH2) | phosphorylation enrichment (AncSZ) | phosphorylation enrichment (EPHB1) | phosphorylation enrichment (EPHB2) | phosphorylation enrichment (FGFR1) | phosphorylation enrichment (FGFR3) | phosphorylation enrichment (Fer (mouse)) | phosphorylation enrichment (Fes) | phosphorylation enrichment (Fyn) | phosphorylation enrichment (Hck) | phosphorylation enrichment (Jak2) | phosphorylation enrichment (MERTK) | phosphorylation enrichment (c-Abl (mouse)) | phosphorylation enrichment (c-Src)
1 | GFIISYREEEQ | 0.672 | 0.633 | 0.581 | 1.41 | 0.495 | 0.5 | 0.478 | 0.729 | 0.644 | 1.27 | 0.488 | 0.456 | 1.34 | 0.313 | 0.598 | 0.399
2 | GFITSYREEEQ | 0.681 | 0.722 | 0.502 | 1.19 | 0.63 | 0.775 | 0.468 | 0.631 | 0.488 | 1.14 | 0.494 | 0.517 | 1.04 | 0.489 | 0.769 | 0.48
3 | GGEAIYAAPFA [Abl_opt_1995] | 0.778 | 0.416 | 0.486 | 4 | 20.2 | 27.9 | 2.48 | 2.05 | 20.5 | 1.11 | 13.1 | 12.7 | 0.747 | 13.5 | 35.6 | 9.05
4 | GGGMIYPLDLF | 0.959 | 0.562 | 0.556 | 0.913 | 0.527 | 0.496 | 0.503 | 0.637 | 0.534 | 1.02 | 0.6 | 0.551 | 0.941 | 0.688 | 0.804 | 0.515
5 | GGRIDYIAGLV [APRT_Y60_D65V] | 0.692 | 0.582 | 0.382 | 1.19 | 0.562 | 0.604 | 0.496 | 0.717 | 0.715 | 1.11 | 0.418 | 0.568 | 0.871 | 0.389 | 0.573 | 0.423
6 | GGSSPYSRRLP [CDK13_Y351] | 0.709 | 0.609 | 0.525 | 0.549 | 0.327 | 0.314 | 0.393 | 0.39 | 0.317 | 0.501 | 0.403 | 0.358 | 0.4 | 0.414 | 0.504 | 0.393
7 | GIVEDYRPTFF [ACVRL1_Y421_P424T_YF] | 0.846 | 0.695 | 0.447 | 0.897 | 0.578 | 0.549 | 0.592 | 0.651 | 0.468 | 1.04 | 0.394 | 0.416 | 0.838 | 0.452 | 0.811 | 0.45
8 | GRQWNYVASML [KLHL4_Y552_S557L] | 1.25 | 1.33 | 0.945 | 0.731 | 0.405 | 0.481 | 0.382 | 0.565 | 0.366 | 0.809 | 0.434 | 0.418 | 0.737 | 0.367 | 0.591 | 0.391
9 | GRQWNYVASMS [KLHL4_Y552] | 1.04 | 0.966 | 0.767 | 0.799 | 0.508 | 0.549 | 0.434 | 0.539 | 0.355 | 0.754 | 0.419 | 0.4 | 0.618 | 0.395 | 0.719 | 0.371
10 | GRRNTCYASIA [ACADM_Y352_Y352C] | 0.972 | 7.14 | 3.58 | 0.557 | 0.336 | 0.365 | 0.333 | 0.432 | 0.33 | 0.644 | 0.442 | 0.477 | 0.48 | 0.407 | 0.5 | 0.495
11 | GRRNTYYASIA [ACADM_Y352] | 0.779 | 0.624 | 0.999 | 0.653 | 0.35 | 0.477 | 0.45 | 0.454 | 0.414 | 0.849 | 0.532 | 0.56 | 0.735 | 0.774 | 0.572 | 0.638
12 | GRVFVYHLSEQ [ITGAE_Y551_R552H_YF] | 0.769 | 1.28 | 0.614 | 0.986 | 0.508 | 0.608 | 0.593 | 0.626 | 0.444 | 0.893 | 0.68 | 0.579 | 0.684 | 0.44 | 0.471 | 0.629
13 | GVLKEYGVKVL [CPS1_Y529] | 0.863 | 0.688 | 0.408 | 0.52 | 0.369 | 0.322 | 0.384 | 0.569 | 0.362 | 0.642 | 0.378 | 0.431 | 0.391 | 0.488 | 0.334 | 0.424
14 | GVTLLCFGRFN [ADGRD1_Y85_Y85C_YF] | 0.922 | 0.863 | 0.465 | 1.14 | 0.732 | 0.669 | 0.524 | 0.885 | 0.498 | 1.53 | 0.443 | 0.587 | 1.09 | 0.384 | 0.9 | 0.388
15 | GVTLLYFGRFN [ADGRD1_Y85_YF] | 1.27 | 1.41 | 0.981 | 1.54 | 0.501 | 0.676 | 0.448 | 0.794 | 0.497 | 1.34 | 0.562 | 0.541 | 1.32 | 0.389 | 0.817 | 0.426
16 | GYITSYREEEQ | 0.646 | 0.573 | 0.49 | 1.29 | 0.677 | 0.659 | 0.595 | 0.711 | 0.616 | 1.37 | 0.554 | 0.543 | 1.15 | 0.442 | 0.879 | 0.463
17 | GYKVRYATGSI [FGFR1_Y210_W213G] | 1.1 | 1.11 | 1.03 | 0.499 | 0.537 | 0.479 | 0.416 | 0.423 | 0.34 | 0.625 | 0.401 | 0.434 | 0.456 | 0.32 | 0.478 | 0.398
18 | HFPFQCHRQLY [F12_Y53_Y53C] | 1.21 | 1.15 | 1.16 | 0.689 | 0.559 | 0.645 | 0.639 | 0.564 | 0.385 | 1.05 | 0.528 | 0.681 | 0.861 | 0.597 | 0.532 | 0.422

Now from value to sequence, other results behind:

Row | SH2 binding enrichment (Grb2 SH2) | SH2 binding enrichment (SHP2-C SH2) | SH2 binding enrichment (c-Src SH2) | Sequence | phosphorylation enrichment (AncSZ) | phosphorylation enrichment (EPHB1) | phosphorylation enrichment (EPHB2) | phosphorylation enrichment (FGFR1) | phosphorylation enrichment (FGFR3) | phosphorylation enrichment (Fer (mouse)) | phosphorylation enrichment (Fes) | phosphorylation enrichment (Fyn) | phosphorylation enrichment (Hck) | phosphorylation enrichment (Jak2) | phosphorylation enrichment (MERTK) | phosphorylation enrichment (c-Abl (mouse)) | phosphorylation enrichment (c-Src)
19 | 0.887 | 0.682 | 0.631 | GGDGSYVSVPL [TNNI3K_Y425_S430L] | 0.692 | 0.414 | 0.509 | 0.5 | 0.573 | 0.486 | 0.599 | 0.406 | 0.437 | 0.558 | 0.474 | 0.471 | 0.38
20 | 0.873 | 0.633 | 0.749 | GHEYIYVDPMQ [PDGFRA_Y574] | 5.16 | 7.52 | 10.2 | 14.4 | 11.6 | 2.92 | 0.917 | 3.2 | 3.75 | 1.83 | 4.29 | 8.98 | 3.65
21 | 0.967 | 1.06 | 0.525 | GKANRYFSPNF [PTEN_Y336_D331G] | 0.622 | 0.379 | 0.424 | 0.455 | 0.685 | 0.477 | 0.612 | 0.479 | 0.398 | 0.811 | 0.46 | 0.779 | 0.528
22 | 0.815 | 0.654 | 0.41 | GLALRCLSDHS [VWF_Y1584_Y1584C] | 0.86 | 0.592 | 0.559 | 0.551 | 0.711 | 0.518 | 1.16 | 0.515 | 0.59 | 0.961 | 0.422 | 0.718 | 0.503
23 | 0.732 | 0.557 | 0.444 | GLALRYLSDHS [VWF_Y1584] | 0.873 | 0.518 | 0.471 | 0.565 | 0.583 | 0.723 | 0.838 | 0.465 | 0.549 | 0.898 | 0.38 | 0.501 | 0.539
24 | 0.885 | 0.937 | 0.944 | GLDGSYLLRFS [SH2D1A_Y29_D33Y_YF] | 0.839 | 0.44 | 0.518 | 0.385 | 0.546 | 0.424 | 0.965 | 0.435 | 0.408 | 0.843 | 0.414 | 0.644 | 0.465
25 | 1.39 | 1.37 | 1.44 | GLIPAYHRFIM [NMNAT1_Y64_V67F] | 0.734 | 0.521 | 0.423 | 0.553 | 0.687 | 0.418 | 0.822 | 0.535 | 0.494 | 1.31 | 0.593 | 0.619 | 0.616
26 | 1.07 | 0.856 | 1.2 | GLIPAYHRVIM [NMNAT1_Y64] | 0.881 | 0.571 | 0.504 | 0.572 | 0.612 | 0.502 | 0.963 | 0.558 | 0.543 | 1.16 | 0.408 | 0.662 | 0.414
27 | 1.12 | 1.19 | 0.663 | GLVFLYVEKNQ [PRELP_Y156_M157V] | 1.22 | 0.6 | 0.622 | 0.44 | 0.902 | 0.575 | 1.29 | 0.505 | 0.532 | 1.15 | 0.337 | 0.759 | 0.479
28 | 0.982 | 0.707 | 0.422 | GPRKAYELSQR [SETX_Y1297] | 0.464 | 0.343 | 0.328 | 0.422 | 0.355 | 0.381 | 0.539 | 0.401 | 0.389 | 0.558 | 0.409 | 0.492 | 0.412
29 | 1.02 | 0.49 | 0.518 | GRDQPYSGTGD [TYRO3_Y828_A831T] | 0.667 | 0.385 | 0.43 | 0.49 | 0.52 | 0.526 | 0.757 | 0.549 | 0.481 | 0.713 | 0.492 | 0.673 | 0.441
30 | 0.881 | 0.612 | 0.632 | GSQERDFELVE [TSC2_Y407_Y407D] | 1.08 | 0.466 | 0.492 | 0.489 | 0.717 | 0.46 | 1.04 | 0.522 | 0.493 | 1.07 | 0.484 | 0.69 | 0.523
31 | 0.888 | 0.524 | 0.65 | GVASDYKCIDP [VPS13B_Y1991] | 1.08 | 0.739 | 0.589 | 0.724 | 0.827 | 0.587 | 1.01 | 0.548 | 0.747 | 0.703 | 0.365 | 0.496 | 0.427
32 | 0.798 | 0.796 | 1.85 | GYEEAYSVSKK [PAFAH1B1_Y28_F31S] | 0.893 | 0.491 | 0.432 | 0.364 | 0.607 | 0.469 | 1.01 | 0.435 | 0.447 | 0.661 | 0.367 | 0.536 | 0.601
33 | 1.18 | 1.26 | 1.28 | HAVYVCDICHV [TWNK_Y508_Y508C] | 1.1 | 1.79 | 2.06 | 0.628 | 0.904 | 0.775 | 1.42 | 0.627 | 0.826 | 1.01 | 0.524 | 0.972 | 0.916
34 | 0.87 | 0.898 | 0.867 | HAVYVYDICHV [TWNK_Y508] | 1.68 | 5.08 | 6.29 | 1.59 | 1.41 | 6.45 | 1.31 | 7.09 | 4.08 | 1.01 | 5.12 | 1.18 | 5.04
